Reference: article PMC11633057, “Targeting MarA N‐terminal domain dynamics to prevent DNA binding”

What was measured:
[1] = molecular target: T1, MarA WT (Escherichia coli MG1655) (UniProt P0ACH5); experiment: EMSA; conditions: EMSA: 20 mM Hepes pH 8, 100 mM MgCl2, 100 mM EDTA, 0.3 mg/mL BSA, +/- DTT, 0.8 uM MarA, DNA 15 nM (200 bp) or 200 nM (30 bp), 20 min 37 C, 8% native gel, SYBR …
T1 sequence: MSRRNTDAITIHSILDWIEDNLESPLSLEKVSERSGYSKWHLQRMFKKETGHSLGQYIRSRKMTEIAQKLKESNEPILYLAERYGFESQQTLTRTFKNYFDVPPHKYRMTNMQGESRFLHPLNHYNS

[2] = molecular target: T2, MarA I16C/M47C I14C;M45C (Escherichia coli MG1655) (UniProt P0ACH5); experiment: EMSA; conditions: EMSA: 20 mM Hepes pH 8, 100 mM MgCl2, 100 mM EDTA, 0.3 mg/mL BSA, +/- DTT, 0.8 uM MarA, DNA 15 nM (200 bp) or 200 nM (30 bp), 20 min 37 C, 8% native gel, SYBR …
T2 sequence: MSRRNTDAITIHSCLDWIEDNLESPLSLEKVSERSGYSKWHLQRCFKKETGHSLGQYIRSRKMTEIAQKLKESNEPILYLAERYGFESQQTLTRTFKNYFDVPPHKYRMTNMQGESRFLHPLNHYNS

[3] = molecular target: T3, MarA S62C/L121C S60C;L119C (Escherichia coli MG1655) (UniProt P0ACH5); experiment: EMSA; conditions: EMSA: 20 mM Hepes pH 8, 100 mM MgCl2, 100 mM EDTA, 0.3 mg/mL BSA, +/- DTT, 0.8 uM MarA, DNA 15 nM (200 bp) or 200 nM (30 bp), 20 min 37 C, 8% native gel, SYBR …
T3 sequence: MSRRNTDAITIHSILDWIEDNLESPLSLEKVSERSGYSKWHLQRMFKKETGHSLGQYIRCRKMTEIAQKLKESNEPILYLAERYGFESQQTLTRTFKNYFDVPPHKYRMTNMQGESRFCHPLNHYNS

[4] = molecular target: T4, MarA I13C/M47C I11C;M45C (Escherichia coli MG1655) (UniProt P0ACH5); experiment: EMSA; conditions: EMSA: 20 mM Hepes pH 8, 100 mM MgCl2, 100 mM EDTA, 0.3 mg/mL BSA, +/- DTT, 0.8 uM MarA, DNA 15 nM (200 bp) or 200 nM (30 bp), 20 min 37 C, 8% native gel, SYBR …
T4 sequence: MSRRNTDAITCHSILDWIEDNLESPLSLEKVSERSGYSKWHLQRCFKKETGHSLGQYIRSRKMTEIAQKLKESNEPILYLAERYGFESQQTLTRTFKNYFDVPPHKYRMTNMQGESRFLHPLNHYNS

MarA I16C/M47C = molecular target: T5, MarA I16C/M47C (Escherichia coli MG1655, UniProt P0ACH5 1-127, I14C;M45C); experiment: EMSA; 0.5 or 1 mM DTT; EMSA: 20 mM Hepes pH 8, 100 mM MgCl2, 100 mM EDTA, 0.3 mg/mL BSA, +/- DTT, 0.8 uM MarA, DNA 15 nM (200 bp) or 200 nM (30 bp), 20 min 37 C, 8% native gel, SYBR green; conditions: protein: recombinant; tags: N-terminal 6xHis (pET-15b); blunt
T5 sequence: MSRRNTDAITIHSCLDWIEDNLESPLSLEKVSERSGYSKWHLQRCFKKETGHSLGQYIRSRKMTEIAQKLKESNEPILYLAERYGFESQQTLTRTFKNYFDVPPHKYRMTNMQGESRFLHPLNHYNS

MarA WT = molecular target: T6, MarA WT (Escherichia coli MG1655, UniProt P0ACH5 1-127); experiment: EMSA; no DTT; EMSA: 20 mM Hepes pH 8, 100 mM MgCl2, 100 mM EDTA, 0.3 mg/mL BSA, +/- DTT, 0.8 uM MarA, DNA 15 nM (200 bp) or 200 nM (30 bp), 20 min 37 C, 8% native gel, SYBR green; conditions: protein: recombinant; tags: N-terminal 6xHis (pET-15b); blunt
T6 sequence: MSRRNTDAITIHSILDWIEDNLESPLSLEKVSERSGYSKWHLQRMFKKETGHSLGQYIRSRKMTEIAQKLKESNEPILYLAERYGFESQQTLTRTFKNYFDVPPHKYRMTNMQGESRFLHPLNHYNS

MarA I13C/M47C = molecular target: T7, MarA I13C/M47C (Escherichia coli MG1655, UniProt P0ACH5 1-127, I11C;M45C); experiment: EMSA; no DTT (disulfide); EMSA: 20 mM Hepes pH 8, 100 mM MgCl2, 100 mM EDTA, 0.3 mg/mL BSA, +/- DTT, 0.8 uM MarA, DNA 15 nM (200 bp) or 200 nM (30 bp), 20 min 37 C, 8% native gel, SYBR green; conditions: protein: recombinant; tags: N-terminal 6xHis (pET-15b); blunt
T7 sequence: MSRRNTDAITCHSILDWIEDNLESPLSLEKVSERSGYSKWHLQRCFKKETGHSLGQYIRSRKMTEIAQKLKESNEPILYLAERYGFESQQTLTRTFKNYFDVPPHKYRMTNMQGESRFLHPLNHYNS

GTTATCCTGTGTATCTGGGTTATCAGCGAAAAGTATAAGGGGTAAACAAGGATAAAGTGTCACTCTTTAGCTAGCCTTGCATCGCATTGAACAAAACTTGAACCGATTTAGCAAAACGTGGCATCGGTCAATTCATTCATTTGACTTATACTTGCCTGGGCAATATTATCCCCTGCAACTAATTACTTGCCAGGGCAAC (double strand) [marRAB 200-bp fragment]
binds: binding [1] | binding [2] | binding [3] | binding [4]

B1: marRAB 30-bp marbox (dsDNA)
DNA 1: GAACCGATTTAGCAAAACGTGGCATCGGTC
DNA 2: GACCGATGCCACGTTTTGCTAAATCGGTTC
binds: binding result (MarA I16C/M47C) | binding result (MarA WT) | binding result (MarA I13C/M47C)
